Measurements taken from patent publication US20240148828A1 (SHATTUCK LABS, published 2024).
One block for each binder: values may come before it.

Key:
[1] = molecular target: T1, recombinant B7H3-His protein (UniProt Q5ZPR3 29-461, limits assumed); test: MSD plate assay, plate-bound B7H3-His, detection with anti-BTN3A1 antibody
T1 construct: not shown: His tag
T1 sequence (looked up): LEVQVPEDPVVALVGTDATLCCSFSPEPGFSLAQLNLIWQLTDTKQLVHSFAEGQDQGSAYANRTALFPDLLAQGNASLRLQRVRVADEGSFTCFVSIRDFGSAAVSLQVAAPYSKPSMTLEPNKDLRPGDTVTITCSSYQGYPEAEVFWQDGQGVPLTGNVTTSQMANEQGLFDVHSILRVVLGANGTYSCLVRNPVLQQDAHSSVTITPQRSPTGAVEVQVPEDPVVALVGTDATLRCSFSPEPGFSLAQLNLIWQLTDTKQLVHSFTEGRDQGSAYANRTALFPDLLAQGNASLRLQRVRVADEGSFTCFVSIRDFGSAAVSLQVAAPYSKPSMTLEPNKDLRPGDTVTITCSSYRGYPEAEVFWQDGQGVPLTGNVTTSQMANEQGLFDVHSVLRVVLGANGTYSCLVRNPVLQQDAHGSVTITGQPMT

[2] = molecular target: T2, recombinant FAP-His protein (UniProt Q12884 26-760); test: MSD plate assay, plate-bound FAP-His, detection with anti-BTN3A1 antibody
T2 construct: not shown: His tag
T2 sequence (Q12884 26-760 limits assumed): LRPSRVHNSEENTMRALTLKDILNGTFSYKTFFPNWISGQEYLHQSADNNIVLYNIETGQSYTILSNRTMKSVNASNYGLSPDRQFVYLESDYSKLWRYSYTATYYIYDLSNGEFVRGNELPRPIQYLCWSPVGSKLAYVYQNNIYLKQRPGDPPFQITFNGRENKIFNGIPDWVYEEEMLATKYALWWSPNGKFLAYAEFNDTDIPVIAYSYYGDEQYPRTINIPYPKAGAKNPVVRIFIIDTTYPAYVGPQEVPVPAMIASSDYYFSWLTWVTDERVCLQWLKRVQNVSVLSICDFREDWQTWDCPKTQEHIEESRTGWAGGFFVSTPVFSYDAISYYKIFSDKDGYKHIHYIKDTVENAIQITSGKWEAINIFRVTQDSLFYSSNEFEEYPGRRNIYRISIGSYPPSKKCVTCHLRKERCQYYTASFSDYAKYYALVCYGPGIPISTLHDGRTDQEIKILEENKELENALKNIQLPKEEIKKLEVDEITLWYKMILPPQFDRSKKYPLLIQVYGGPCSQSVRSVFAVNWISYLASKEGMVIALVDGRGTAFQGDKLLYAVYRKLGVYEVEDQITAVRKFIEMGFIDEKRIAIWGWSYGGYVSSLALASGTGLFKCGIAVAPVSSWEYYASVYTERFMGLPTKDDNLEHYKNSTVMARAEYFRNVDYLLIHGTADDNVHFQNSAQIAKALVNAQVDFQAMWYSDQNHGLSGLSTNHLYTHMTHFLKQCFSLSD

[3] = molecular target: T3, CD19 expressed on cells (Daudi, Raji, K562-CD19) (human, UniProt P15391 20-556); test: flow cytometry on Daudi cells
T3 construct: whole, on cells
T3 sequence (looked up): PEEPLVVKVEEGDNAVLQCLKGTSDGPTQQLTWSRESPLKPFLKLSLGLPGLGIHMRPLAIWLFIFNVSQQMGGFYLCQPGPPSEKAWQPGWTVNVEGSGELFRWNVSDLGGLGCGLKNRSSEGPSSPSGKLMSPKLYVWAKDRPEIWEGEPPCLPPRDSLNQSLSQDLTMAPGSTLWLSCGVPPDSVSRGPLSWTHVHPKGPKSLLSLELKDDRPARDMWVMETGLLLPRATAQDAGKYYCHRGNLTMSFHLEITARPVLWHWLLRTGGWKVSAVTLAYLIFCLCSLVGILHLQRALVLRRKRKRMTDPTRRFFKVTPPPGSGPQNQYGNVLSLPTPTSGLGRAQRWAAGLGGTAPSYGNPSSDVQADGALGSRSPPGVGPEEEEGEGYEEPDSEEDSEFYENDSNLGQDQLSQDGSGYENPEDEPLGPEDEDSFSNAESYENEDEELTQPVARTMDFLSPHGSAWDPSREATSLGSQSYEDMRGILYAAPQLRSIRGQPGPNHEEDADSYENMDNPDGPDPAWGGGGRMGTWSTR

[4] = molecular target: T4, B7H3 expressed on cells (OV-90, OVCAR3) (human, UniProt Q5ZPR3 29-534); test: flow cytometry on OV-90 cells
T4 construct: whole, on cells; also called B7H3+ OV90 tumor cells; B7H3+ OVCAR3 cells
T4 sequence (looked up): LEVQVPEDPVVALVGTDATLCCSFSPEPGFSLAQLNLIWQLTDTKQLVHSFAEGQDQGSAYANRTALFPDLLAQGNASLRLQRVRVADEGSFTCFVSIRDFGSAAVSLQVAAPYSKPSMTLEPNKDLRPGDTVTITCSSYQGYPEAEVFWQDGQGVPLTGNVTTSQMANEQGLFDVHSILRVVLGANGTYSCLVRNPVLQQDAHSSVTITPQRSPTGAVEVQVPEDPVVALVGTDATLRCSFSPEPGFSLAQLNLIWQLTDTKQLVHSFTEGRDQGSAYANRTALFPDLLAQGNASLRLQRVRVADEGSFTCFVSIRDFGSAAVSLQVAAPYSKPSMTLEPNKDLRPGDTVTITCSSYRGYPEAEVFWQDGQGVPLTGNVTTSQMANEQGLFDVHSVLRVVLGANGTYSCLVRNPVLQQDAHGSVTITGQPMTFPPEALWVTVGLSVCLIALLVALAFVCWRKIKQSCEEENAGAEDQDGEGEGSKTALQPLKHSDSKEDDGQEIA

[5] = molecular target: T3, CD19 expressed on cells (Daudi, Raji, …); test: flow cytometry on RAJI cells (B7H3-negative, CD19-expressing), AF647 anti-Fc detection

binding result [1]: no binding
binding result [2]: no binding
binding result [3]: binds
B1: BTN2A1/3A1-Fc-CD19scFv heterodimeric protein (Fc fusion)
chain 1: QFIVVGPTDPILATVGENTTLRCHLSPEKNAEDMEVRWFRSQFSPAVFVYKGGRERTEEQMEEYRGRTTFVSKDISRGSVALVIHNITAQENGTYRCYFQEGRSYDEAILHLVVAGLGSKPLISMRGHEDGGIRLECISRGWYPKPLTVWRDPYGGVAPALKEVSMPDADGLFMVTTAVIIRDKSVRNMSCSINNTLLGQKKESVIFIPESFMPSVSPCAGSGSRKGGKRGSKYGPPCPPCPAPEFLGGPSVFLFPPKPKDQLMISRTPEVTCVVVDVSQEDPEVQFNWYVDGVEVHNAKTKPREEQFNSTYRVVSVLTVLHQDWLSGKEYKCKVSSKGLPSSIEKTISNATGQPREPQVYTLPPSQEEMTKNQVSLTCLVKGFYPSDIAVEWESNGQPENNYKTTPPVLDSDGSFFLYSRLTVDKSRWQEGNVFSCSVLHEALHNHYTQKSLSLSLGKDEGGEDGSDIQMTQTTSSLSASLGDRVTISCRASQDISKYLNWYQQKPDGTVKLLIYHTSRLHSGVPSRFSGSGSGTDYSLTISNLEQEDIATYFCQQGNTLPYTFGGGTKLEITGGGSGGGSGGGSEVKLQESGPGLVAPSQSLSVTCTVSGVSLPDYGVSWIRQPPRKGLEWLGVIWGSETTYYNSALKSRLTIIKDNSKSQVFLKMNSLQTDDTAIYYCAKHYYYGGSYAMDYWGQGTSVTVSS
chain 2: not shown
notes: Secreted from Expi293 or CHO cells and purified; also called BTN2A1/3A1-Fc-CD19scFv3; BTN2A1/3A1-Fc-19scFv

binding result [4]: binds
binding result [5]: no binding
B2: BTN2A1/3A1-Fc-B7H3scFv heterodimeric protein (Fc fusion)
chain 1: QFIVVGPTDPILATVGENTTLRCHLSPEKNAEDMEVRWFRSQFSPAVFVYKGGRERTEEQMEEYRGRTTFVSKDISRGSVALVIHNITAQENGTYRCYFQEGRSYDEAILHLVVAGLGSKPLISMRGHEDGGIRLECISRGWYPKPLTVWRDPYGGVAPALKEVSMPDADGLFMVTTAVIIRDKSVRNMSCSINNTLLGQKKESVIFIPESFMPSVSPCAGSGSRKGGKRGSKYGPPCPPCPAPEFLGGPSVFLFPPKPKDQLMISRTPEVTCVVVDVSQEDPEVQFNWYVDGVEVHNAKTKPREEQFNSTYRVVSVLTVLHQDWLSGKEYKCKVSSKGLPSSIEKTISNATGQPREPQVYTLPPSQEEMTKNQVSLTCLVKGFYPSDIAVEWESNGQPENNYKTTPPVLDSDGSFFLYSRLTVDKSRWQEGNVFSCSVLHEALHNHYTQKSLSLSLGKDEGGEDGSDIQMTQSPSFLSASVGDRVTITCKASQNVDTNVAWYQQKPGKAPKALIYSASYRYSGVPSRFSGSGSGTDFTLTISSLQPEDFAEYFCQQYNNYPFTFGQGTKLEIKSSGGGGSGGGGSGGGGSEVQLVESGGGLVQPGGSLRLSCAASGFTFSSFGMHWVRQAPGKGLEWVAYISSGSGTIYYADTVKGRFTISRDNAKNSLYLQMNSLRAEDTAVYYCARHGYRYEGFDYWGQGTTVTVSS
chain 2: not shown
notes: Produced by transient co-transfection of ExpiCHO cells; also called BTN2A1/3A1-Fc-B7H3scFv/B7H3scFv
